Assay results as given in the supplement of paper PMC10567573.
± gives the standard deviation.

Test: protein stability index of a GFP-peptide fusion (GPS, HEK-293T) (PSI 1-6); higher = more stable
[1] = treatment: DMSO, c terminus: a fixed tail appended
[2] = treatment: MLN4924 1 uM, 8 h, c terminus: a fixed tail appended
[3] = treatment: DMSO, c terminus: native
[4] = treatment: MLN4924 1 uM, 8 h, c terminus: native
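Note: 24-mer peptide tiles fused after GFP, lentivirally expressed, FACS-sorted into six equal bins by GFP/DsRed ratio, decoded by Illumina sequencing, PSI is the read-weighted mean bin number.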

Row | Sequence | protein stability index [1] | protein stability index [2] | protein stability index [3] | protein stability index [4]
1 | ENMVTVGFFSCMGTLCIGAAAFSQ [KCNK9] | 3.39 ± 0.5 | 2.91 ± 0.16 | – | –
2 | GRGAVVPGAGLRRPTYTPPSIMPQ [ZBTB22] | 3.51 ± 0.3 | 3.74 ± 0.063 | – | –
3 | GVWAPPAPGFGEDVPNRLVDNIDM [BEX5] | 4.52 ± 0.57 | 4.25 ± 0.55 | – | –
4 | DVVFEIQGTTVPAHRAILVARCEV [RHOBTB3] | 2.69 ± 0.85 | 2.51 ± 0.44 | – | –
5 | EENMERIGEEVRQLMEKLREKQLS [BEX1] | 4.57 ± 0.38 | 4.35 ± 0.5 | – | –
6 | ISAVNYDFDEEYFSNTSELAKDFI [DAPK3] | 3.01 ± 0.21 | 3.28 ± 0.58 | – | –
7 | RIIPNFYPPLEGHVRQGVFSSLNH [INTS3] | 2.28 ± 0.025 | 2.3 ± 0.16 | – | –
8 | TRKHYQVTGYGINGTGDSNDFWRI [POMT2] | 2.34 ± 0.25 | 2.32 ± 0.28 | – | –
9 | QRGQEPLGPGALHFDLRDDDDAEE [TCF25] | 5.36 ± 0.39 | 5.53 ± 0.33 | – | –
10 | CTDHELENHSMYCVQCKMPVCYQC [TRIM9] | 4.23 ± 0.23 | 4.33 ± 0.36 | – | –
11 | ILTTSNITEKIDVAFVDRADIKQY [TRIP13] | 2.88 ± 0.2 | 3.02 ± 0.12 | – | –
12 | LRKKKTTKLRLERVKFRRQEANAR [NEUROD6] | 3.59 ± 0.34 | 3.59 ± 0.27 | – | –
13 | KARSYSYPHCTGISQQDPESDSQG [ZC2HC1C] | 5.28 ± 0.28 | 5.25 ± 0.076 | – | –
14 | AALTNKHSQELTNEKEKALQAQVQ [SASS6] | 5.3 ± 0.086 | 5.46 ± 0.19 | – | –
15 | PDKEEQLPFGPFNGTAWTYHSQDE [PKD2L1] | 4.67 ± 0.1 | 4.76 ± 0.38 | – | –
16 | QPYPLPHVRHMAYQLCHALRFLHE [CLK3] | 2.34 ± 0.1 | 2.1 ± 0.23 | – | –
17 | IMLRSNESFTMDDMSWTCGNQDYK [VDR] | 2.86 ± 0.12 | 2.61 ± 0.27 | – | –
18 | ANPSIRDKEGYNSIHYAAAYGHRQ [ANKRD44] | 3.52 ± 0.22 | 3.6 ± 0.3 | – | –
19 | VPQLVTGRCATRAFHRKSHSLDLN [RNF180] | 2.35 ± 0.2 | 2.6 ± 0.41 | – | –
20 | VTLAAHFLGLGAPNCLSMGSRCLK [ZBED1] | 2.26 ± 0.37 | 2.19 ± 0.21 | – | –
21 | LLGSSTACIVVLDRTSHRLHTANL [PPTC7] | 2.66 ± 0.39 | 2.46 ± 0.32 | – | –
22 | FEPPAPGEGNSSQNSRNKRAVQGP [TNFSF13B] | 5.3 ± 0.17 | 5.45 ± 0.2 | – | –
23 | AGGELGISLNMCLLGALVLLGLGV [PBXIP1] | 2.72 ± 1 | 2.7 ± 0.87 | – | –

Row | Sequence | protein stability index [1] | protein stability index [2] | protein stability index [3] | protein stability index [4]
24 | EPGTPSSSPDDKLLTSPRAINNLV [KLHL14] | 4.87 ± 0.16 | 4.91 ± 0.34 | – | –
25 | PSLSPGSSCVKYLIFLSNFPFSLL [TSPAN10] | 2.8 ± 0.85 | 2.83 ± 0.6 | – | –
26 | EHICVNNGNSYICKCSEGFVLAED [MATN2] | 4.61 ± 0.15 | 4.26 ± 0.53 | – | –
27 | GQSVTAVGRIIAPLLSGVAQEVSP [MFSD9] | 3.39 ± 0.19 | 3.44 ± 0.19 | – | –
28 | ITYESSQVDPGTDLEPGVLMSAQT [EPB41L3] | 4.29 ± 0.33 | 4.7 ± 0.085 | – | –
29 | TSSKPTALPSASSAYFPGQLPNS [SASS6] | – | – | 4.42 ± 0.41 | 4.4 ± 0.26
30 | RHRSADVLGVADGVGGWRDYGVDP [PPTC7] | 4.14 ± 0.39 | 4.07 ± 0.48 | – | –
31 | LVENDQQLQKILSIPQSSLEPLKA [ACSBG2] | 3.66 ± 0.34 | 3.99 ± 0.41 | – | –
32 | DAQEIMQSLRDLGVKISEQQAEKI [SLC25A25] | 3.81 ± 0.21 | 3.79 ± 0.47 | – | –
33 | MEEASEGGGNDRVRNLQSEVEGVK [VAMP8] | 5.49 ± 0.19 | 5.38 ± 0.16 | – | –
34 | RCMQCDAKFDFLTRKHHCRRCGKC [ZFYVE21] | 3.94 ± 0.34 | 4.3 ± 0.3 | – | –
35 | TNMARIREIMEKFGKQPVSLPARR [CPXM2] | 2.72 ± 0.1 | 3.06 ± 0.31 | – | –
36 | YCSIKCQQEHWHAEHKRTCRRKR [ZMYND11] | – | – | 2.92 ± 0.61 | 3.51 ± 0.87
37 | QNVVVKTLWKHQFAWPFYQPVDAI [BRD3] | 2.31 ± 0.46 | 2.29 ± 0.45 | – | –
38 | MLWEHNSTIVVMLTKLREMGREKC [PTPRD] | 2.33 ± 0.55 | 2.15 ± 0.2 | – | –
39 | GFEESEPLTGFLTTVPDGPTQLRA [TNXB] | 4.44 ± 0.41 | 4.52 ± 0.3 | – | –
40 | ACDELFSYLIEKVKRKKNVLRLCC [PRAME] | 2.99 ± 0.43 | 2.7 ± 0.61 | – | –
41 | HAEIIAWIRICRPGSIIGPQQHFL [CDC14A] | 3.91 ± 0.99 | 2.74 ± 1.6 | – | –
42 | LLLLLLASLLPSARLASPLPREEE [ADAMTS4] | 2.56 ± 0.07 | 3.08 ± 0.55 | – | –
43 | AGPAFDSDPEISDVDEDEPGGLVG [PPFIA4] | 5.19 ± 0.56 | 5.77 ± 0.07 | – | –
44 | ERPWIKRMIFKLFSQETVMKFVPR [APMAP] | 2.71 ± 0.75 | 2.48 ± 1.1 | – | –
45 | ETQKLLCKNGETLLGAVNFFVSSI [ARFIP2] | 2.49 ± 0.52 | 2.25 ± 0.36 | – | –
46 | PLPAGSLPPYPPYFEGAPFPHPLW [PWWP2B] | 2.58 ± 0.31 | 2.64 ± 0.37 | – | –

Row | Sequence | protein stability index [1] | protein stability index [2] | protein stability index [3] | protein stability index [4]
47 | VALPTEAEFQLVRDVVLCSLLNFL [TENT5C] | 2.14 ± 0.28 | 2.13 ± 0.37 | – | –
48 | EVWGNALLRPPVAAFVRAQADLLA [DNAAF3] | 2.39 ± 0.31 | 2.02 ± 0.37 | – | –
49 | KLWSFFIYLLRRQIRTVIQYQTVR [CTDNEP1] | 2.99 ± 0.3 | 2.94 ± 0.37 | – | –
50 | QRPRFITSGGSNIIYVASNHFVWR [VPS39] | 2.12 ± 0.23 | 2.49 ± 0.25 | – | –
51 | VSGLLVGYELGIISGALLQIKTLL [SLC2A12] | – | 2.97 ± 1.2 | – | –
52 | SLCYLQLTRQLVSCSSDGGIAVWN [WDFY1] | 2.87 ± 0.57 | 2.81 ± 0.46 | – | –
53 | DDHLQQPLQNQKILKRTGQRYEHG [ZNF649] | 4.84 ± 0.085 | 4.97 ± 0.23 | – | –
54 | EPQSEPVRVLDMVAKLESECLKRQ [FBXO34] | 4.88 ± 0.28 | 4.9 ± 0.054 | – | –
55 | QEILHRDLKLGNFFINEAMELKVG [PLK2] | 2.58 ± 0.25 | 2.76 ± 0.31 | – | –
56 | TAIRPLKILPWSPEKIGTRFLLYT [PNLIPRP1] | 2.23 ± 0.21 | 2.37 ± 0.24 | – | –
57 | GLNSSWVELPMNSSNGNDNGNGKN [BNIP3L] | 5.11 ± 0.42 | 5.54 ± 0.2 | – | –
58 | HHAKDSEGVEIMLGVCASGLLIYR [EPB41L3] | 2.12 ± 0.69 | 2.14 ± 0.61 | – | –
59 | KRQVTHFQFLSWPDYGVPSSAASL [PTPN9] | 2.21 ± 0.35 | 2.38 ± 0.18 | – | –
60 | TKFEVRLLRDPADASEAHESSSRG [CHGB] | 4.61 ± 0.26 | 4.64 ± 0.12 | – | –
61 | ATALAPLQTDHYAALLGSNSESWG [SPSB2] | 3.31 ± 0.32 | 3.28 ± 0.14 | – | –
62 | TLLEAEPPHVLISRPSAPFTEASM [ESR2] | 3.31 ± 0.26 | 3.46 ± 0.29 | – | –
63 | EAMYHCCWNTSYCSIKCQQEHWHA [ZMYND11] | 2.3 ± 0.45 | 2.65 ± 0.43 | – | –
64 | AERLFENQLVGPESIAHIGDVMFT [APMAP] | 2.99 ± 0.38 | 3.16 ± 0.31 | – | –
65 | GYDDDNHDYIVRSGERWLERYEID [DYRK1B] | 4.11 ± 0.27 | 4.03 ± 0.22 | – | –
66 | SDGWWRGSYNGQIGWFPSNYVLEE [NCK2] | 2.89 ± 0.35 | 2.73 ± 0.12 | – | –
67 | EPATPEEGEPATQRQDPAAAQEGE [GAGE1] | 5.62 ± 0.13 | 5.61 ± 0.19 | – | –
68 | HAPGVPRILVGNRLHLAFKRQVPT [RAB40C] | 2.69 ± 0.17 | 2.72 ± 0.13 | – | –
69 | GVRCNTPAMGLQKKLRLNGGRNPY [LOXL2] | 2.75 ± 0.12 | 2.95 ± 0.34 | – | –

Row | Sequence | protein stability index [1] | protein stability index [2] | protein stability index [3] | protein stability index [4]
70 | DLRTVDPETQARLEALLEAAGIGK [ANKRD17] | 3.84 ± 0.36 | 3.94 ± 0.16 | – | –
71 | KIKDEVHPEVKCVGSVALTALVTV [C8orf76] | 2.61 ± 0.26 | 2.11 ± 0.85 | – | –
72 | SYKARLPLRLFLIIANTMAFQNDV [SCD] | 2.66 ± 0.53 | 2.5 ± 0.2 | – | –
73 | SPHSPDSSQSSLAQEEEEEDQGRT [DDIT3] | 5.57 ± 0.21 | 5.54 ± 0.17 | – | –
74 | MMRREDEEEEGTMMKAKGDLEMKE [ZBED2] | 5.56 ± 0.25 | 5.64 ± 0.29 | – | –
75 | ELVVRFFACPSKTDFFKNIMNFID [KCNA1] | 2.32 ± 0.58 | 2.33 ± 0.52 | – | –
76 | KAVEEELDAEDRPAWNSKLQYILA [SLC6A17] | 2.96 ± 0.38 | 3.15 ± 0.24 | – | –
77 | GFALNPDKKTCTKIDYCASSNHGC [MATN2] | 3.53 ± 0.31 | 3.57 ± 0.64 | – | –
78 | MQQFLQKALEILRKDFSELRSAGV [FAM50A] | 3.67 ± 0.41 | 3.03 ± 0.25 | – | –
79 | QNNENNISCVERGWSTPPKCRSTI [CFHR2] | 3.97 ± 0.29 | 4.11 ± 0.34 | – | –
80 | SYLMDHFIPSSHNDRDFLTRIFTE [PPEF2] | 2.5 ± 0.19 | 2.51 ± 0.28 | – | –
81 | QEPEVPCAAVLPGKPGDRNCPEFP [RSPH3] | 5.21 ± 0.12 | 5.13 ± 0.14 | – | –
82 | DAAAILLDEQNKRPCRKFLLTGQC [ZMAT5] | 2.98 ± 0.45 | 3 ± 0.59 | – | –
83 | QQHRQGRSHHLEMVIQLLAIMCVS [PTGFR] | 2.61 ± 0.51 | 2.12 ± 0.44 | – | –
84 | DSFVCQCSEGFLINEDLKTCSRVD [MATN2] | 3.57 ± 0.38 | 3.9 ± 0.45 | – | –
85 | LSGGLGAGSCRLGSAGGLGSTLGG [KRT17] | 2.47 ± 0.23 | 2.37 ± 0.28 | – | –
86 | QLEEKLEIANEDRKHALERFEQEA [CCDC89] | 5.4 ± 0.19 | 5.4 ± 0.12 | – | –
87 | NTEVVQVAAGRTQKAGVTRSGRLI [NEK8] | 4.32 ± 0.21 | 4.4 ± 0.16 | – | –
88 | QVQCHSYTGYCWCVTPNGRPISGT [SMOC2] | 2.08 ± 0.26 | 2.37 ± 0.38 | – | –
89 | ESDPSDPNKDMVVQLIDDFKISGM [SRPK2] | 4.82 ± 0.3 | 4.8 ± 0.26 | – | –
